Results reported in the DeepSol protein solubility set.

test: soluble on expression in E. coli; label from the status in PepcDB or PDB records

Sequence | soluble on expression in E. coli
MDVNPTLLFLKVPAQNAISTTFPYTGDPPYSHGTGTGYTMDTVNRTHQYSEKGRWTTNTETGAPQLNPIDGPLPEDNEPSG | soluble
MQTKEKLASLSYLAVKSLLYELNLTPKPGLVDCHNNGAHNDMDFYTFLDSILSLSPFFKKYIEVGWLYHNESPQYLFNQLRKLGIEAEAAMFSATERVNTHKGINFSFALLLGATGSYLAKHIELIQEKRRFMPQDSLTICHLAGEMSMHLIQNDLSHVETKRNLTYGEKLFLQYGLKGLRGEASQGYPSLTQKALPFFRNELLKKQDIQISQLKLLLYLMTFIEDSNIIHRGGIKSWKKVQQEAQTLLEKDLPPYQLKEQLNSYNQILTDRHLSPGGAADLLSLTLYFSFLEQLI | not soluble
MKLKHLDKLLAHCHRRRYTAKSTIIYAGDRCETLFFIIKGSVTILIEDDDGREMIIGYLNSGDFFGELGLFEKEGSEQERSAWVRAKVECEVAEISYAKFRELSQQDSEILYTLGSQMADRLRKTTRKVGDLAFLDVTGRVARTLLDLCQQPDAMTHPDGMQIKITRQEIGRIVGCSREMVGRVLKSLEEQGLVHVKGKTMVVFGTR | soluble
MFKLLKTFQIVYEQMNFSKAATCLYISQPAVSNQIKQLEEELGCSLFLRNGRQDVVPTRQAEVLYNRLLNLADDWQETLTALHQARLPKETCRIAASNTFAVYYLPQLMQHLQTQYATINFVLEMNNSEEVVEKVEKHQVDFGFIEKPLITKGATREEIIQDQLVLAGDPANQNWLVREKDSGVFHYTQQYLEESNQSPTLMTVKNNEMIVKMLELGMGQSLLSRKAITEKIPFQTLGEKYWRSFYFLTRGHLKSSLLQEVKQAIYRFYQTEMNKY | not soluble
MKDVVIVGALRTPIGCFRGALAGHSAVELGSLVVKALIERTGVPAYAVDEVILGQVLTAGAGQNPARQSAIKGGLPNSVSAITINDVCGSGLKALHLATQAIQCGEADIVIAGGQENMSRAPHVLTDSRTGAQLGNSQLVDSLVHDGLWDAFNDYHIGVTAENLAREYGISRQLQDAYALSSQQKARAAIDAGRFKDEIVPVMTQSNGQTLVVDTDEQPRTDASAEGLARLNPSFDSLGSVTAGNASSINDGAAAVMMMSEAKARALNLPVLARIRAFASVGVDPALMGIAPVYATRRCLERVGWQLAEVDLIEANEAFAAQALSVGKMLEWDERRVNVNGGAIALGHPIGASGCRILVSLVHEMVKRNARKGLATLCIGGGQGVALTIERDE | soluble
MASLLNARTAVITGGAQGLGLAIGQRFVAEGARVVLGDVNLEATEVAAKRLGGDDVALAVRCDVTQADDVDILIRTAVERFGGLDVMVNNAGITRDATMRTMTEEQFDQVIAVHLKGTWNGTRLAAAIMRERKRGAIVNMSSVSGKVGMVGQTNYSAAKAGIVGMTKAAAKELAHLGIRVNAIAPGLIRSAMTEAMPQRIWDQKLAEVPMGRAGEPSEVASVAVFLASDLSSYMTGTVLDVTGGRFI | soluble
MGSDKIHHHHHHMANRLNQLLKQWLSQKDTQKWVLATIIETDGSSYRKAGAMMMINDLGQYFGLLSGGCLESDIMLQARRCWDSGRNRIVEYDMREEEDLAWKLGIGCGGMVRILLQPVDEANQYLQLDSLYALLESNQTAEYCQVINDQVPLNTLKTLTLKQAAPEQAKSIEGALKKADTDRKTETQQGVFKQYLKPAPHLAVFGGGVDARPVVAIATQLGWQVTLVDPRTSYARNGHFDNSVSVVRDAIESLEQNRWLQQIDMAIIMTHNIKLDAQSLALVQKSSAKYVGMLGPIHRTDRVLDLIPTTREQLVKPLANPVGLRLGGELPESIALSMLSEAHAFIEQQNGLSISGILRQ | not soluble
MGSDKIHHHHHHMKVSADIGALVERRKQGYSLEAPFYQSEEIFALDMEAIFRKHWIQVAVEPDVPEPGDYITVELGHDSILVVRDDDMQVRAFHNVCRHRGARLCNEDKGTVGNIVCPYHSWTYNLTGDLMFAEHMGEKFDRCKHSLKSVHVQNLAGLIFVCLADEPPADFAAMRAAMEPYLLPHDLPNTKIAAQVDIIEEGNWKLTMENNRECYHCVANHPELTISLYEYGFGYQQSPANAEGMEAFEKTCIARAAQWEALNLPSAEIERLLERTGFRTQRLPLDRSGESQTLDAKVASKKLLGKFEQADLGGLSFWTQPNSWHHFMSDHIVTFSVIPLSAGKTLVRTKWLVHKDAQEGVDYDVANLTAVWNATNDQDRVLVEYSQRGSASSAYEPGPYSPFTEGLVEKFSAWYIRRLAEHVGA | not soluble
